Results reported in the supplement of paper PMC10724198.
± gives the standard deviation of the averaged measurements.

Columns and labels:
Saccharomyces cerevisiae [1] = assay: protein stability index of tFT-peptide fusion (C-terminal peptide) (PSI (0-1 scale)); higher = more stable (slower turnover); conditions: genetic background: wild type; temperature: 30 C
Saccharomyces cerevisiae [2] = assay: as above
Protocol: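 MPS profiling in S. cerevisiae of the tFT-X12 degron library: putative degron peptides plus stable controls, 12 aa, fused to the C-terminus of a sfGFP-mCherry timer. Cells are FACS-sorted into 8 mCherry/sfGFP bins and deep-sequenced. PSI runs from 0 (unstable) to 1 (stable). Backgrounds are wild type, das1Δ and doa10Δ at 30 °C, and wild type, das1Δ, cdc34-1 and cdc53-1 at 37 °C; 2-3 technical replicates each.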

[3] = genetic background: cdc34-1, temperature: 37 C
[4] = genetic background: cdc53-1, temperature: 37 C
[5] = genetic background: das1 deletion, temperature: 30 C
[6] = genetic background: das1 deletion, temperature: 37 C
[7] = genetic background: doa10 deletion, temperature: 30 C
[8] = genetic background: wild type, temperature: 30 C
[9] = genetic background: wild type, temperature: 37 C
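Also: PSI is a weighted mean of sequencing reads over stability bins, variants kept only with over 10 reads, mCherry proximal and sfGFP distal, peptide attached via GGGS linker.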

Which results are given for VFSVTVVFVSVL?
protein stability index (Saccharomyces cerevisiae [1]): 0.298 ± 0.046; protein stability index (Saccharomyces cerevisiae [2]; [3]): 0.158 ± 0.0021; protein stability index (Saccharomyces cerevisiae [2]; [4]): 0.271 ± 0.062; protein stability index (Saccharomyces cerevisiae [2]; [5]): 0.192 ± 0.035; protein stability index (Saccharomyces cerevisiae [2]; [6]): 0.383 ± 0.014; protein stability index (Saccharomyces cerevisiae [2]; [7]): 0.168 ± 0.011; protein stability index (Saccharomyces cerevisiae [2]; [8]): 0.191 ± 0.024; protein stability index (Saccharomyces cerevisiae [2]; [9]): 0.324 ± 0.012

How did the protein stability index (Saccharomyces cerevisiae [1]) turn out when CVILVVISGLLG was run?
Its protein stability index is 0.345 ± 0.078.

And the protein stability index (Saccharomyces cerevisiae [2]; [3])?
Its protein stability index is 0.166 ± 0.035.

And the protein stability index (Saccharomyces cerevisiae [2]; [4])?
The protein stability index was 0.315 ± 0.039.

And the protein stability index (Saccharomyces cerevisiae [2]; [5])?
The protein stability index was 0.199 ± 0.039.

What about the protein stability index (Saccharomyces cerevisiae [2]; [6]) of the same sequence?
The protein stability index was 0.3938 ± 0.0035.

What about the protein stability index (Saccharomyces cerevisiae [2]; [7]) of the same sequence?
The protein stability index was 0.178 ± 0.013.

And the protein stability index (Saccharomyces cerevisiae [2]; [8])?
Its protein stability index is 0.217 ± 0.03.

And the protein stability index (Saccharomyces cerevisiae [2]; [9])?
The protein stability index was 0.3491 ± 0.0021.

LVPYLWWLVFAL was tested. Which protein stability index (Saccharomyces cerevisiae [1]) did it give?
Its protein stability index is 0.274 ± 0.027.

What about the protein stability index (Saccharomyces cerevisiae [2]; [3]) of the same sequence?
Its protein stability index is 0.189 ± 0.015.

What about the protein stability index (Saccharomyces cerevisiae [2]; [4]) of the same sequence?
The protein stability index was 0.125 ± 0.023.

What about the protein stability index (Saccharomyces cerevisiae [2]; [5]) of the same sequence?
The protein stability index was 0.192 ± 0.028.

And the protein stability index (Saccharomyces cerevisiae [2]; [6])?
Its protein stability index is 0.319 ± 0.046.

And the protein stability index (Saccharomyces cerevisiae [2]; [7])?
The protein stability index was 0.202 ± 0.011.

What about the protein stability index (Saccharomyces cerevisiae [2]; [8]) of the same sequence?
Its protein stability index is 0.143 ± 0.019.

And the protein stability index (Saccharomyces cerevisiae [2]; [9])?
Its protein stability index is 0.24 ± 0.026.

What does the source list for YLGLSAVAILWM?
protein stability index (Saccharomyces cerevisiae [1]): 0.4784 ± 0.0037; protein stability index (Saccharomyces cerevisiae [2]; [3]): 0.538 ± 0.041; protein stability index (Saccharomyces cerevisiae [2]; [4]): 0.533 ± 0.02; protein stability index (Saccharomyces cerevisiae [2]; [5]): 0.414 ± 0.029; protein stability index (Saccharomyces cerevisiae [2]; [6]): 0.563 ± 0.014; protein stability index (Saccharomyces cerevisiae [2]; [7]): 0.381 ± 0.011; protein stability index (Saccharomyces cerevisiae [2]; [8]): 0.412 ± 0.018; protein stability index (Saccharomyces cerevisiae [2]; [9]): 0.529 ± 0.011

What does the source list for VCFFLFWCLSFS?
protein stability index (Saccharomyces cerevisiae [1]): 0.454 ± 0.034; protein stability index (Saccharomyces cerevisiae [2]; [3]): 0.4239 ± 0.0013; protein stability index (Saccharomyces cerevisiae [2]; [4]): 0.479 ± 0.021; protein stability index (Saccharomyces cerevisiae [2]; [5]): 0.343 ± 0.05; protein stability index (Saccharomyces cerevisiae [2]; [6]): 0.4916 ± 0.00098; protein stability index (Saccharomyces cerevisiae [2]; [7]): 0.348 ± 0.011; protein stability index (Saccharomyces cerevisiae [2]; [8]): 0.353 ± 0.025; protein stability index (Saccharomyces cerevisiae [2]; [9]): 0.476 ± 0.021

Which protein stability index (Saccharomyces cerevisiae [1]) does the source give for FVSGRFLFFFVL here?
The protein stability index was 0.204 ± 0.04.

What about the protein stability index (Saccharomyces cerevisiae [2]; [3]) of the same sequence?
Its protein stability index is 0.52 ± 0.029.

What about the protein stability index (Saccharomyces cerevisiae [2]; [4]) of the same sequence?
The protein stability index was 0.675 ± 0.0071.

And the protein stability index (Saccharomyces cerevisiae [2]; [5])?
Its protein stability index is 0.489 ± 0.018.

And the protein stability index (Saccharomyces cerevisiae [2]; [6])?
The protein stability index was 0.699 ± 0.014.

What about the protein stability index (Saccharomyces cerevisiae [2]; [7]) of the same sequence?
The protein stability index was 0.162 ± 0.0036.

And the protein stability index (Saccharomyces cerevisiae [2]; [8])?
The protein stability index was 0.144 ± 0.018.

What about the protein stability index (Saccharomyces cerevisiae [2]; [9]) of the same sequence?
The protein stability index was 0.208 ± 0.0074.

Which results are given for SCFCFRVLLCSF?
protein stability index (Saccharomyces cerevisiae [1]): 0.383 ± 0.0064; protein stability index (Saccharomyces cerevisiae [2]; [3]): 0.333 ± 0.041; protein stability index (Saccharomyces cerevisiae [2]; [4]): 0.348 ± 0.0054; protein stability index (Saccharomyces cerevisiae [2]; [5]): 0.336 ± 0.023; protein stability index (Saccharomyces cerevisiae [2]; [6]): 0.402 ± 0.019; protein stability index (Saccharomyces cerevisiae [2]; [7]): 0.325 ± 0.021; protein stability index (Saccharomyces cerevisiae [2]; [8]): 0.297 ± 0.019; protein stability index (Saccharomyces cerevisiae [2]; [9]): 0.364 ± 0.0086

Which protein stability index (Saccharomyces cerevisiae [1]) does the source give for SLPVSPLVRLLA here?
Its protein stability index is 0.235 ± 0.021.

And the protein stability index (Saccharomyces cerevisiae [2]; [3])?
Its protein stability index is 0.563 ± 0.017.

What about the protein stability index (Saccharomyces cerevisiae [2]; [4]) of the same sequence?
Its protein stability index is 0.599 ± 0.0093.

What about the protein stability index (Saccharomyces cerevisiae [2]; [5]) of the same sequence?
The protein stability index was 0.486 ± 0.026.

What about the protein stability index (Saccharomyces cerevisiae [2]; [6]) of the same sequence?
Its protein stability index is 0.611 ± 0.0096.

And the protein stability index (Saccharomyces cerevisiae [2]; [7])?
The protein stability index was 0.127 ± 0.015.

And the protein stability index (Saccharomyces cerevisiae [2]; [8])?
Its protein stability index is 0.138 ± 0.02.

And the protein stability index (Saccharomyces cerevisiae [2]; [9])?
The protein stability index was 0.2102 ± 0.0012.

What does the source list for LCAFLKLFILII?
protein stability index (Saccharomyces cerevisiae [1]): 0.239 ± 0.016; protein stability index (Saccharomyces cerevisiae [2]; [3]): 0.0906 ± 0.018; protein stability index (Saccharomyces cerevisiae [2]; [4]): 0.141 ± 0.076; protein stability index (Saccharomyces cerevisiae [2]; [5]): 0.181 ± 0.051; protein stability index (Saccharomyces cerevisiae [2]; [6]): 0.325 ± 0.017; protein stability index (Saccharomyces cerevisiae [2]; [7]): 0.235 ± 0.027; protein stability index (Saccharomyces cerevisiae [2]; [8]): 0.141 ± 0.045; protein stability index (Saccharomyces cerevisiae [2]; [9]): 0.23 ± 0.034

Which protein stability index (Saccharomyces cerevisiae [1]) does the source give for WAIMGLIIFCLF here?
The protein stability index was 0.329 ± 0.022.

What about the protein stability index (Saccharomyces cerevisiae [2]; [3]) of the same sequence?
Its protein stability index is 0.309 ± 0.0083.

What about the protein stability index (Saccharomyces cerevisiae [2]; [4]) of the same sequence?
The protein stability index was 0.363 ± 0.031.

And the protein stability index (Saccharomyces cerevisiae [2]; [5])?
The protein stability index was 0.3 ± 0.035.

What about the protein stability index (Saccharomyces cerevisiae [2]; [6]) of the same sequence?
The protein stability index was 0.438 ± 0.015.

And the protein stability index (Saccharomyces cerevisiae [2]; [7])?
The protein stability index was 0.222 ± 0.0086.

And the protein stability index (Saccharomyces cerevisiae [2]; [8])?
Its protein stability index is 0.244 ± 0.022.

And the protein stability index (Saccharomyces cerevisiae [2]; [9])?
The protein stability index was 0.353 ± 0.012.

For IVVVVRLSPILG, which protein stability index (Saccharomyces cerevisiae [1]) is on record?
The protein stability index was 0.331 ± 0.034.

And the protein stability index (Saccharomyces cerevisiae [2]; [3])?
Its protein stability index is 0.293 ± 0.016.

And the protein stability index (Saccharomyces cerevisiae [2]; [4])?
The protein stability index was 0.397 ± 0.099.

And the protein stability index (Saccharomyces cerevisiae [2]; [5])?
Its protein stability index is 0.27 ± 0.015.

And the protein stability index (Saccharomyces cerevisiae [2]; [6])?
Its protein stability index is 0.4272 ± 0.003.

And the protein stability index (Saccharomyces cerevisiae [2]; [7])?
Its protein stability index is 0.228 ± 0.013.

What about the protein stability index (Saccharomyces cerevisiae [2]; [8]) of the same sequence?
Its protein stability index is 0.274 ± 0.016.

What about the protein stability index (Saccharomyces cerevisiae [2]; [9]) of the same sequence?
The protein stability index was 0.401 ± 0.011.

Which results are given for FSLFYYIHLSVA?
protein stability index (Saccharomyces cerevisiae [1]): 0.192 ± 0.019; protein stability index (Saccharomyces cerevisiae [2]; [3]): 0.191 ± 0.002; protein stability index (Saccharomyces cerevisiae [2]; [4]): 0.211 ± 0.02; protein stability index (Saccharomyces cerevisiae [2]; [5]): 0.169 ± 0.034; protein stability index (Saccharomyces cerevisiae [2]; [6]): 0.2771 ± 0.002; protein stability index (Saccharomyces cerevisiae [2]; [7]): 0.0982 ± 0.0035; protein stability index (Saccharomyces cerevisiae [2]; [8]): 0.104 ± 0.028; protein stability index (Saccharomyces cerevisiae [2]; [9]): 0.197 ± 0.0021

How did the protein stability index (Saccharomyces cerevisiae [1]) turn out when SPWSIHLILLQV was run?
Its protein stability index is 0.318 ± 0.025.

And the protein stability index (Saccharomyces cerevisiae [2]; [3])?
Its protein stability index is 0.209 ± 0.016.

And the protein stability index (Saccharomyces cerevisiae [2]; [4])?
The protein stability index was 0.312 ± 0.0012.

What about the protein stability index (Saccharomyces cerevisiae [2]; [5]) of the same sequence?
The protein stability index was 0.265 ± 0.033.

And the protein stability index (Saccharomyces cerevisiae [2]; [6])?
Its protein stability index is 0.438 ± 0.018.

And the protein stability index (Saccharomyces cerevisiae [2]; [7])?
Its protein stability index is 0.1894 ± 0.00096.

And the protein stability index (Saccharomyces cerevisiae [2]; [8])?
Its protein stability index is 0.203 ± 0.029.

What about the protein stability index (Saccharomyces cerevisiae [2]; [9]) of the same sequence?
Its protein stability index is 0.36 ± 0.034.

With LVWDLFRCFSML as the sequence, how does the protein stability index (Saccharomyces cerevisiae [1]) read?
The protein stability index was 0.242 ± 0.026.

And the protein stability index (Saccharomyces cerevisiae [2]; [3])?
The protein stability index was 0.582 ± 0.018.

And the protein stability index (Saccharomyces cerevisiae [2]; [4])?
Its protein stability index is 0.7165 ± 0.001.

What about the protein stability index (Saccharomyces cerevisiae [2]; [5]) of the same sequence?
Its protein stability index is 0.647 ± 0.032.

And the protein stability index (Saccharomyces cerevisiae [2]; [6])?
The protein stability index was 0.759 ± 0.038.

And the protein stability index (Saccharomyces cerevisiae [2]; [7])?
The protein stability index was 0.23 ± 0.0054.

And the protein stability index (Saccharomyces cerevisiae [2]; [8])?
The protein stability index was 0.228 ± 0.021.

What about the protein stability index (Saccharomyces cerevisiae [2]; [9]) of the same sequence?
The protein stability index was 0.351 ± 0.029.
